Values belong to the binder of their own block, whether it stands above or below them. No end group written: not given here.
B2: UBXD1-wt (1-441) (natural protein, human, UniProt Q9BZV1 1-441, looked up)
chain: MKKFFQEFKADIKFKSAGPGQKLKESVGEKAHKEKPNQPAPRPPRQGPTNEAQMAAAAALARLEQKQSRAWGPTSQDTIRNQVRKELQAEATVSGSPEAPGTNVVSEPREEGSAHLAVPGVYFTCPLTGATLRKDQRDACIKEAILLHFSTDPVAASIMKIYTFNKDQDRVKLGVDTIAKYLDNIHLHPEEEKYRKIKLQNKVFQERINCLEGTHEFFEAIGFQKVLLPAQDQEDPEEFYVLSETTLAQPQSLERHKEQLLAAEPVRAKLDRQRRVFQPSPLASQFELPGDFFNLTAEEIKREQRLRSEAVERLSVLRTKAMREKEEQRGLRKYNYTLLRVRLPDGCLLQGTFYARERLGAVYGFVREALQSDWLPFELLASGGQKLSEDENLALNECGLVPSALLTFSWDMAVLEDIKAAGAEPDSILKPELLSAIEKLL
notes: also called UBXD1-fl; UBXN6; not shown: GST, N-terminal, cleaved

What was measured:
Settings in all cases: both partners purified
UBXD1-wt (1-441) = target: B2; assay: fluorescence polarisation; displacement titration: UBXD1 incubated with 0.1 µM 5,6-FAM-p97-C10 peptide to 50% saturation, concentration of p97 successively increased; competitive binding model; 50 mM NaKPi buffer, pH 7.5, 25 °C
UBXD1-PUB (150-264) = target: T1, UBXD1-PUB (150-264) (human, UniProt Q9BZV1 150-264); assay: NMR titration; 1H-15N-HSQC of 15N-HR23b-UBL (200 µM), UBXD1-PUB added stepwise to 400 µM; 50 mM sodium potassium phosphate, pH 7.5, 25 °C
T1 construct: UBXD1 (UBXN6), human, PUB domain, residues 150-264; also called His6-UBXD1-PUB; source: E. coli Rosetta2, purified (Ni-NTA, thrombin cleavage, SEC); unlabelled or 15N-labelled; not shown: His6, N-terminal, cleaved
T1 sequence (looked up): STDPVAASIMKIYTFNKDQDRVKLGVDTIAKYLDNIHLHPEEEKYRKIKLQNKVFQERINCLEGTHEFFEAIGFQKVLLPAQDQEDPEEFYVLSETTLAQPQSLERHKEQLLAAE

p97 wild type (1-806) [1] = target: T2, p97 wild type (1-806) (UniProt P55072 1-806); assay: fluorescence polarisation; displacement titration: UBXD1 incubated with 0.1 µM 5,6-FAM-p97-C10 peptide to 50% saturation, concentration of p97 successively increased; competitive binding model; 50 mM NaKPi buffer, pH 7.5, 25 °C
T2 construct: p97/VCP, residues 1-806; also called p97-wt; p97-fl; source: E. coli BL21 DE3 (T1r), purified (Ni-NTA, anion exchange)
T2 sequence (P55072 whole entry, the tested form may be a part): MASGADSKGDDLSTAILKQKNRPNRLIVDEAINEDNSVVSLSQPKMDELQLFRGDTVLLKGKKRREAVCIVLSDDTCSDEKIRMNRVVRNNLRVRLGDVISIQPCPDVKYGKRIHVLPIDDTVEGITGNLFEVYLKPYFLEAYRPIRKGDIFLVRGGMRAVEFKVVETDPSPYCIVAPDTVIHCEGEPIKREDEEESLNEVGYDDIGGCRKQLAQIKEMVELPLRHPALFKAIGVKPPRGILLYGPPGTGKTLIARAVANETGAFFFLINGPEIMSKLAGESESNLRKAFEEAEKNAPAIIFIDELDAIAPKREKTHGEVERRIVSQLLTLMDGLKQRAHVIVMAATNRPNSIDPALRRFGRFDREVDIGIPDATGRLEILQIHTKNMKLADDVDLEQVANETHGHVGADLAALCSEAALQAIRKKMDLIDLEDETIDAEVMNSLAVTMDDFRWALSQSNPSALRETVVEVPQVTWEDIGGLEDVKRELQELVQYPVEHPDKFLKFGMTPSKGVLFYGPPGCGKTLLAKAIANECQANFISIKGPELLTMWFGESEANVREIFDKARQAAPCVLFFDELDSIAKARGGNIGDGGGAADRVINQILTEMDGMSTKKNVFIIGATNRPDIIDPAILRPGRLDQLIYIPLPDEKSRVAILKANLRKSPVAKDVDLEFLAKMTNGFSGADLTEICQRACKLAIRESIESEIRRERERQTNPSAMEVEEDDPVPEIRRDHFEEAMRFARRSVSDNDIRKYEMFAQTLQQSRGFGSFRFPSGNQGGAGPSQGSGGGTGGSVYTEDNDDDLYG

Ubiquitin-GST = target: T3, Ubiquitin-GST (UniProt P0CG48 1-76); assay: pull-down; screening pulldown: 25 µM Ubiquitin-GST, 1 µM p97 (hexamer) and UBXD1 variant with GSH beads, 30 min, 4 °C, IP buffer; Coomassie stain
T3 construct: ubiquitin fused at its C-terminus to GST; also called Ub-GST; source: E. coli BL21 DE3 (T1r), purified; not shown: GST, C-terminal, kept

[2] = target: T4, ubiquitin-GST fusion protein (Ub-GST) (UniProt P0CG48 1-76); assay: pull-down; 50 μM ubiquitin-GST, 2.5 μM p97 (hexamer) and 5 μM UBXD1 variant with GSH beads, 30 min, 4 °C, 50 mM Tris pH 7.4, 150 mM KCl, 1% Triton-X-100
T4 construct: source: E. coli BL21 DE3 (T1r), purified

UBXD1-PUB (150–264) = target: T5, UBXD1-PUB (150–264) (human, UniProt Q9BZV1 150-264); assay: NMR titration; 1H-15N-HSQC: 15N-UBXD1-PUB (400 µM) with HR23b-UBL (0 to 1300 µM), and the reverse titration of 15N-HR23b-UBL with UBXD1-PUB; 25 °C
T5 construct: UBXD1 (UBXN6), human, PUB domain, residues 150-264; 15N-labelled for some NMR titrations; also called isolated PUB domain; His-UBXD1-PUB; source: E. coli Rosetta2, purified (Ni-NTA, thrombin cleavage, SEC); not shown: His6, N-terminal, cleaved
T5 sequence (looked up): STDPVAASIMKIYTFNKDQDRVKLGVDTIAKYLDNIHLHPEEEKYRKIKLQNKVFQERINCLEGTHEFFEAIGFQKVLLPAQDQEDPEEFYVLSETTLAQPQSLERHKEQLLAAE

p97 wild type (1-806) [3] = target: T2, p97 wild type (1-806); assay: fluorescence polarisation; fluorescence anisotropy titration of Atto594-labelled UBXD1 construct with p97 construct; 50 mM NaKPi buffer, pH 7.5, 25 °C; fitted with the stoichiometry 1:1
[4] = target: T6, UBXD1 (1–441), recombinant, purified (human, UniProt Q9BZV1 1-441); assay: fluorescence polarisation; direct anisotropy titration of 5,6-FAM-p97-C10 peptide (0.1 µM in the displacement set-up) with UBXD1
T6 construct: also called UBXD1-wt; UBXD1-fl; not shown: GST, N-terminal, cleaved
T6 sequence (looked up): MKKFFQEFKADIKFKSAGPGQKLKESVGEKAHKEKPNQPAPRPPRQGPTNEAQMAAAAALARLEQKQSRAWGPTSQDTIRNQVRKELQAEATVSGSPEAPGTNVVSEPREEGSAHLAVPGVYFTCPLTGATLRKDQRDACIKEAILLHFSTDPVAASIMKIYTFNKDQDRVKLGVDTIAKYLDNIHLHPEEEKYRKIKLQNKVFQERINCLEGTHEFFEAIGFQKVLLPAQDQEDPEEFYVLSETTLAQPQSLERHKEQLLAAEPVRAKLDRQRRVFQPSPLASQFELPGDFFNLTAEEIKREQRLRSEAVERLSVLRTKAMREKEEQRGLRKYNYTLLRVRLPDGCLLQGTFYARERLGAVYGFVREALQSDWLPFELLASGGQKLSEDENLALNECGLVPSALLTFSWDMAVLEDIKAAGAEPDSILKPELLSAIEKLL

p97-N (1–199) = target: T7, p97-N (1–199) (UniProt P55072 1-199); assay: fluorescence polarisation; fluorescence anisotropy; Atto594-labeled UBXD1 proteins, p97 constructs titrated; 50 mM NaKPi pH 7.5, 25 °C; all fitted with stoichiometry n = 1
T7 construct: p97/VCP, N-domain, residues 1-199; also called N-domain of p97; source: E. coli BL21 DE3 (T1r) (pET28a), purified
T7 sequence (P55072 1-199): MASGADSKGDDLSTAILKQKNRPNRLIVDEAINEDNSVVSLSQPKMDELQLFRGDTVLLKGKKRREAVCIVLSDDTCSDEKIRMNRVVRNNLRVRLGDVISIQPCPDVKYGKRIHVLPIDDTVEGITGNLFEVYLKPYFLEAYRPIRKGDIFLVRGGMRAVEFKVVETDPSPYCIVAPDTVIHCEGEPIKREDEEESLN

binding result (UBXD1-wt (1-441)): binds
Binder: {5,6‑FAM}-TEDNDDDLYG (p97/VCP C-terminal residues 797-806)

binding result (UBXD1-PUB (150-264)): binds
B1: HR23b-UBL (1-78) (domain or fragment)
chain: not shown
notes: also called HR23b-UBL wt; 15N-HR23b-UBL; source: unlabelled or 15N-labelled; not shown: GST, N-terminal, cleaved

Binder: B2
Kd (p97 wild type (1-806) [1]): 1.1 ± 0.1 µM

binding result (Ubiquitin-GST): binds
B3: UBXD1-His E368A/D373A (natural protein, human, UniProt Q9BZV1 1-441, looked up)
chain: MKKFFQEFKADIKFKSAGPGQKLKESVGEKAHKEKPNQPAPRPPRQGPTNEAQMAAAAALARLEQKQSRAWGPTSQDTIRNQVRKELQAEATVSGSPEAPGTNVVSEPREEGSAHLAVPGVYFTCPLTGATLRKDQRDACIKEAILLHFSTDPVAASIMKIYTFNKDQDRVKLGVDTIAKYLDNIHLHPEEEKYRKIKLQNKVFQERINCLEGTHEFFEAIGFQKVLLPAQDQEDPEEFYVLSETTLAQPQSLERHKEQLLAAEPVRAKLDRQRRVFQPSPLASQFELPGDFFNLTAEEIKREQRLRSEAVERLSVLRTKAMREKEEQRGLRKYNYTLLRVRLPDGCLLQGTFYARERLGAVYGFVRAALQSAWLPFELLASGGQKLSEDENLALNECGLVPSALLTFSWDMAVLEDIKAAGAEPDSILKPELLSAIEKLL
notes: the mutant's name is printed in four ways; not shown: GST, N-terminal, cleaved

binding result [2]: binds
B4: UBXD1 E368A/D373A (full length, recombinant) (natural protein, human, UniProt Q9BZV1 1-441, looked up)
chain: MKKFFQEFKADIKFKSAGPGQKLKESVGEKAHKEKPNQPAPRPPRQGPTNEAQMAAAAALARLEQKQSRAWGPTSQDTIRNQVRKELQAEATVSGSPEAPGTNVVSEPREEGSAHLAVPGVYFTCPLTGATLRKDQRDACIKEAILLHFSTDPVAASIMKIYTFNKDQDRVKLGVDTIAKYLDNIHLHPEEEKYRKIKLQNKVFQERINCLEGTHEFFEAIGFQKVLLPAQDQEDPEEFYVLSETTLAQPQSLERHKEQLLAAEPVRAKLDRQRRVFQPSPLASQFELPGDFFNLTAEEIKREQRLRSEAVERLSVLRTKAMREKEEQRGLRKYNYTLLRVRLPDGCLLQGTFYARERLGAVYGFVRAALQSAWLPFELLASGGQKLSEDENLALNECGLVPSALLTFSWDMAVLEDIKAAGAEPDSILKPELLSAIEKLL
notes: UBXD1 (UBXN6), human, mutant in the context of recombinant UBXD1-fl

Kd (UBXD1-PUB (150–264)): 1500 ± 900 µM
B5: HR23b-UBL (domain or fragment)
chain: not shown
notes: HR23b (RAD23B), UBL domain; The cited NMR structure of the HR23b-UBL domain is PDB 1P1A; 15N-labelled for the reverse titration; also called HR23b-UBL wt; UBL domain of HR23b; not shown: GST, N-terminal, cleaved

Kd (p97 wild type (1-806) [3]): 5.5 ± 0.2 µM
B6: UBXD1-ΔUBX-C (1-332), Atto594-labelled (domain or fragment, human, UniProt Q9BZV1 1-332, looked up)
chain: MKKFFQEFKADIKFKSAGPGQKLKESVGEKAHKEKPNQPAPRPPRQGPTNEAQMAAAAALARLEQKQSRAWGPTSQDTIRNQVRKELQAEATVSGSPEAPGTNVVSEPREEGSAHLAVPGVYFTCPLTGATLRKDQRDACIKEAILLHFSTDPVAASIMKIYTFNKDQDRVKLGVDTIAKYLDNIHLHPEEEKYRKIKLQNKVFQERINCLEGTHEFFEAIGFQKVLLPAQDQEDPEEFYVLSETTLAQPQSLERHKEQLLAAEPVRAKLDRQRRVFQPSPLASQFELPGDFFNLTAEEIKREQRLRSEAVERLSVLRTKAMREKEEQRGLR
modifications: Atto594 (NHS ester labelling)
notes: the methods say that the UBXD1 proteins were labelled with Atto594-NHS ester for anisotropy; not shown: GST, N-terminal, cleaved

binding result [4]: binds
Binder: {5,6‑FAM}-TEDNDDDLYG (p97/VCP, C-terminal residues 797-806)

Kd (p97-N (1–199)): 22 ± 1 µM
B7: UBXD1-N (1–133) (domain or fragment, human, UniProt Q9BZV1 1-133, looked up)
chain: MKKFFQEFKADIKFKSAGPGQKLKESVGEKAHKEKPNQPAPRPPRQGPTNEAQMAAAAALARLEQKQSRAWGPTSQDTIRNQVRKELQAEATVSGSPEAPGTNVVSEPREEGSAHLAVPGVYFTCPLTGATLR
modifications: Atto594 (NHS ester; the UBXD1 proteins were labeled for anisotropy)
notes: UBXD1 (UBXN6), human, N-terminus, residues 1-133; The construct is not described on its own in the methods; limits from the results; also called UBXD1 N-terminus; not shown: GST, N-terminal, cleaved

— publication PMC10241913 (Nature Communications, 2023)
